These results are taken from US20240158474A1 (SINO BIOLOGICAL, published 2024).

Assay in all cases: indirect ELISA, VLP coated at 2 µg/mL, antibody 10 ng/mL, HRP goat anti-rabbit Fc
For orientation: ELISA stands for enzyme-linked immunosorbent assay.

For one assay, the target named is T1, HPV51 VLP protein (human papillomavirus type 51, UniProt P26536 1-474).
T1 construct: Complete VLP protein; no limits of the construct printed, whole entry named; also called HPV51L1
T1 sequence: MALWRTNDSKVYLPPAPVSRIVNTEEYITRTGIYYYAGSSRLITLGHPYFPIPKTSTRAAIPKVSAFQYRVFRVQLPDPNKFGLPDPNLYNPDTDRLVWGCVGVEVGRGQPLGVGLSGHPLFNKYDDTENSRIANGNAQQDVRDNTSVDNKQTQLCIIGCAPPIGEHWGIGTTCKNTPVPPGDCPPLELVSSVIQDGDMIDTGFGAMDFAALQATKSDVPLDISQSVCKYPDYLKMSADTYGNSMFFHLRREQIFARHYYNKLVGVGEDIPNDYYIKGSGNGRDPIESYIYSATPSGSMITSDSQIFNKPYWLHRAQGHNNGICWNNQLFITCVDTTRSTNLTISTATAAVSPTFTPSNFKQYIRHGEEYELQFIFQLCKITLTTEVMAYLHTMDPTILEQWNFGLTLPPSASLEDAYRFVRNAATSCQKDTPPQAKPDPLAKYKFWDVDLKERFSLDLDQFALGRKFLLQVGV

In the next assay the target is T2, HPV52 VLP protein (human papillomavirus type 52, UniProt Q05138 27-504).
T2 construct: Complete VLP protein; no limits of the construct printed, whole entry named; also called P52SHELL
T2 sequence: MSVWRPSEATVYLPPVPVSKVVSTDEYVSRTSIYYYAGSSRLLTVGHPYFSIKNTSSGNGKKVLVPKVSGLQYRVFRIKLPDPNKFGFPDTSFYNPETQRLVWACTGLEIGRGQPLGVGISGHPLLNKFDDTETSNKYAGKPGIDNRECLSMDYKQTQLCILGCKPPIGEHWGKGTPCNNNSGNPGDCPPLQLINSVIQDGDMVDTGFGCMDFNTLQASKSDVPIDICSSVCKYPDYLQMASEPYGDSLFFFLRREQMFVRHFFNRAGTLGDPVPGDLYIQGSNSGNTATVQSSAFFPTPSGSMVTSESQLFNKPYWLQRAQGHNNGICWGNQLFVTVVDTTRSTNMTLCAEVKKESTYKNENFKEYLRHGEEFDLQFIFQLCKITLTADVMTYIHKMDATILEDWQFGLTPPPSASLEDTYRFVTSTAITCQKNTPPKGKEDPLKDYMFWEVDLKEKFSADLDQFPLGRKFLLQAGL

The next assay addresses T3, HPV56 VLP protein (human papillomavirus type 56, UniProt P36743 36-507).
T3 construct: Complete VLP protein; no limits of the construct printed, whole entry named; also called HPV56L1
T3 sequence: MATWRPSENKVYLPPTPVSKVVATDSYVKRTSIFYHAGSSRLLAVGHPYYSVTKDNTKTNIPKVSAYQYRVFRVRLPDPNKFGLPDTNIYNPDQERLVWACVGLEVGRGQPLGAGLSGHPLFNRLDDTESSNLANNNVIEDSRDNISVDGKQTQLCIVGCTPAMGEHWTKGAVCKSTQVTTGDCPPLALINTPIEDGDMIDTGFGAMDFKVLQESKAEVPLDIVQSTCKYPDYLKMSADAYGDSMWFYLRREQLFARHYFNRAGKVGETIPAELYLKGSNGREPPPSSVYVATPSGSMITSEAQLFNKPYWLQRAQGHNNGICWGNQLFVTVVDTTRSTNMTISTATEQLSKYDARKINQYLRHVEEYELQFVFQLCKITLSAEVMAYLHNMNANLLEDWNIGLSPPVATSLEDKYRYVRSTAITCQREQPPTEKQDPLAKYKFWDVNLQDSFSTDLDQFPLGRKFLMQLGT

Another assay deals with T4, HPV31 VLP protein (human papillomavirus type 31; human …, UniProt P17388 1-475; P06416 474-499).
T4 construct: range 1-475;range 474-499; Complete VLP protein used as coating protein; also called P31SHELL(1-475Y)+HPV33L1(474K-499K)
T4 sequence: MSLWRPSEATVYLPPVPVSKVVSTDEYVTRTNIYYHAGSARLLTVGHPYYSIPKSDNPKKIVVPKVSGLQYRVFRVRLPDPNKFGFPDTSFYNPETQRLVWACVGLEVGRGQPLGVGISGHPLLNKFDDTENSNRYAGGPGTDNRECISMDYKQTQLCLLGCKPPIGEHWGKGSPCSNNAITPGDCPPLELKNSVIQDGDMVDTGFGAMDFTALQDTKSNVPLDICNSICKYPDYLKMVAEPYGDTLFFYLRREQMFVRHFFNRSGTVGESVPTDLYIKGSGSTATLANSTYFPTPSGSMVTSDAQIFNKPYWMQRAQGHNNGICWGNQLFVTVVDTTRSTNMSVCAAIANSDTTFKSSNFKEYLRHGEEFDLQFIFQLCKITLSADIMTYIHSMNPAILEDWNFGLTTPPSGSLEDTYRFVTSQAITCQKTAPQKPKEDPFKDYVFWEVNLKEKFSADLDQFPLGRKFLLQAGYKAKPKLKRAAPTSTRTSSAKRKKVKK

For the next assay, the target named is T5, HPV35 VLP protein (human papillomavirus type 35; human …, UniProt P27232 1-472; P06416 474-499).
T5 construct: range 1-472;range 474-499; Complete VLP protein used as coating protein; also called HPV35L1(1-472L)+HPV33L1(474K-499K)
T5 sequence: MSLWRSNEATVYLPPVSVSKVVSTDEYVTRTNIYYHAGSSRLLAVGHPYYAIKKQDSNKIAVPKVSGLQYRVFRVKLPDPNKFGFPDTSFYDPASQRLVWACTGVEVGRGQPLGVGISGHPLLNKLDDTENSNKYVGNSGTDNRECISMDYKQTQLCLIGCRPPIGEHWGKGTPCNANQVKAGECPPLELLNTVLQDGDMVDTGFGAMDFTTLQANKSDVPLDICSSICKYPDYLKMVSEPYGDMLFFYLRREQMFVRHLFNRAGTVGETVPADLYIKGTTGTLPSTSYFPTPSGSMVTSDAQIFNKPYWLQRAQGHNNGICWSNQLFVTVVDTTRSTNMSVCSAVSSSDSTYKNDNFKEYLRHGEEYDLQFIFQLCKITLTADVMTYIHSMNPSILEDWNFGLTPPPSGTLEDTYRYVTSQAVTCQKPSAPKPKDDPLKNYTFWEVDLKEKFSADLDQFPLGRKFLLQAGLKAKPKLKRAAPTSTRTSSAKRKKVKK

B1: monoclonal antibody HPV6-R003 (antibody, V domains shown)
VH: QQQLEESGGGLVKPGGTLTLTCKASGIDLSNYYMCWVRQAPGKGLEWIGCIYTGSGRTYYASWAKGRFTISKASSTTVTLQMTSLTAADTATYFCARDYLGWRASNIWGPGTLVTVSS
VL: ELVMTQTPSSVSAAVGGTVTINCQASQSVYSNNLVWYQQKPGQPPKLLIYGASTLASGVPSRFKGSGSGTQFTLTISDVVCDDAATYYCGGYVSDSTDGTAFGGGTEVVVKG
notes: here built from variable plus constant region so that the signal peptides are left out; In the sandwich ELISA the same antibody is used as coating antibody and, labelled with horseradish peroxidase, as detection antibody; also called anti-HPV6 L1 protein antibody
Regarding B1, the OD450-blank worked out at 0.041 OD450 with HPV51 VLP protein; 0.044 OD450 with HPV52 VLP protein; 0.042 OD450 with HPV56 VLP protein; 0.047 OD450 with HPV31 VLP protein; 0.048 OD450 with HPV35 VLP protein.
